Experimental data from US20220380734A1, “SYSTEMS AND METHODS FOR LUNG CELL EXPANSION AND DIFFERENTIATION” (DUKE UNIVERSITY, priority 2019, published 2022).

Assays:
human alveolospheres = experiment: Human alveolosphere culture with human IL-1β; assay type: cell-based; conditions: three donors, hIL-1β removed at day 7, cultured additional 7-15 days
Protocol: For human alveolosphere culture, HTII-280^+ human AT2s (1-3×10^3) were resuspended in scrum free medium and mixed with an equal amount of Matrigel and plated in 6 well plates. For detailed mouse and human serum-free, feeder-free (SFFF) media composition, see Table 1 and Table 2.
The impact of human IL-1β was also tested in human alveolosphere culture. Human IL-1β was removed from medium containing human alveolospheres from three individual donors at day 7 and cultured for an additional 7-15 days (FIG. 7A).

AEC2s [1] = experiment: AEC2/AEC1 marker immunostaining of mouse organoids (maintenance and differentiation)
Protocol: Serum free medium contained 10 μM SB431542 (Abcam, Cambridge, UK), 3 μM CHIR99021 (Tocris, Bristol, UK), 1 μM BIRB796 (Tocris, Bristol, UK), 5 μg/ml Heparin (Sigma-Aldrich, St. Louis, Mo.), 50 ng/ml human EGF (Gibco), 10 ng/ml mouse FGF10 (R&D systems. Minneapolis, Minn.), 10 μM Y27632 (Selleckchem, Houston, Tex.), Insulin-Transferrin-Selenium (Thermo, Waltham, Mass.), 1% Glutamax (Thermo, Waltham, Mass.), 2% B27 (Thermo, Waltham, Mass.), 1% N2 (Thermo, Waltham, Mass.), 15 mM HEPES (Thermo, Waltham, Mass.), 1.25 mM N-acetylcysteine (Sigma-Aldrich, St. Louis, Mo.) and 1% Anti-Anti (Thermo, Waltham, Mass.) in Advanced DMEM/F12 (Thermo, Waltham, Mass.). For Alveo-Expansion medium, 10 ng/ml mouse IL-1b (BioLegend, San Diego, Calif.), 10 ng/ml mouse TNFa (BioLegend, San Diego, Calif.) were added into serum free medium. For Alveo-Maintenance medium, 10 ng/ml mouse Noggin (Peprotech, Rocky Hill, N.J.) and 1 μM DMH-1 (Tocris, Bristol, UK.) were added into Alveo-Expansion medium. Alveo-Differentiation medium contained ITS, Glutamax, 5 μg/ml Heparin, 5 ng/ml human EGF, 1 μg/ml mouse FGF10, 10% fetal bovine serum and 1% Anti-Anti in Advanced DMEM/F12.
For differentiation, mouse alveolospheres were cultured in AMM medium for 10 days were switched to AT2-differentiation medium followed by culture for an additional 7 days, except where stated otherwise. […]

AEC2s [2] = experiment: Feeder-free (no fibroblasts) mouse AEC2 organoid culture in serum free medium: CFE and organoid size; assay type: cell-based

Human IL-1β: human interleukin-1β tested in human alveolosphere culture
organoid numbers and the size (growth rate) (human alveolospheres): significantly enhanced

IL6: interleukin-6, 20 ng/mL supplement of serum-free differentiation medium
expression of AEC1 markers including AGER (AEC2s [1]; mouse AEC2s, 10 days maintenance medium, then serum-free differentiation medium + IL6 20 ng/mL for 10 days): strong expression

B1: IL1β: mouse interleukin-1β, cytokine added to serum free medium (protein, UniProt P10749 118-269, looked up)
Interleukin-1 beta: VPIRQLHYRLRDEQQKSLVLSDPYELKALHLNGQNINQQVIFSMSFVQGEPSNDKIPVALGLKGKNLYLSCVMKDGTPTLQLESVDPKQYPKKKMEKRFVFNKIEVKSKVEFESAEFPNWYISTSQAEHKPVFLGNNSGQDIIDFTMESVSS
CFE (AEC2s [2]; IL1β removed from culture media on day-3, n=2): 19.85% | CFE (AEC2s [2]; IL1β removed from culture media on day-5, n=3, average±SEM): 20.35%±0.30% | CFE (AEC2s [2]; IL1β removed from culture media on day-7, n=3, average±SEM): 19.33%±0.84% | CFE (AEC2s [2]; continuous IL1β supplementation, n=3, average±SEM): 20.91%±1.61%

B2: BMP4: BMP4 ligand (protein, UniProt P12644 293-408, looked up)
Bone morphogenetic protein 4: SPKHHSQRARKKNKNCRRHSLYVDFSDVGWNDWIVAPPGYQAFYCHGDCPFPLADHLNSTNHAIVQTLVNSVNSSIPKACCVPTELSAISMLYLDEYDKVVLKNYQEMVVEGCGCR
complete differentiation of AEC2 to AEC1 cells (AEC2s [1]; organoids treated with BMP4 ligand): not observed
